The target in one assay is T1, di muNKG2D ECD Fc avi (murine, biotinylated at the avi-tag).
T1 construct: Dimeric fusion of murine NKG2D ECD to the C-terminus of an avi-tagged human IgG1 Fc; also called recombinant murine NKG2D
The experiment in a line: ELISA; biotinylated antigen on streptavidin plate. On the procedure:
Nunc streptavidin coated plates (MicroCoat, #11974998001) were coated with 25 μl/well biotinylated his avi huNKG2D ECD (SEQ ID NO: 93) at a concentration of 0.5 μg/ml and incubated at room temperature (RT) for 1 hour. After washing with 3×90 μl/well PBST-buffer (10×PBS, Roche #11666789001+0.1% TWEEN® (polysorbate) 20), 25 μl anti-NKG2D antibodies were added in 1:3 dilutions starting at a concentration of 3 μg/ml or alternatively with a 1:30 dilution of the original sample and incubated 1 h at RT. After washing (3×90 μl/well PBST-buffer), 25 μl/well anti hu kappa chain HRP (horseradish peroxidase)-conjugate (Millipore, #AP502P, 1:2000) was added and incubated at RT for 1 h. After washing (3×90 μl/well PBST-buffer) 25 μl/well TMB (3,3′,5,5′-tetramethylbenzidine) substrate (Roche, #11835033001) was added.
Nunc streptavidin coated plates (MicroCoat, #11974998001) were coated with 25 μl/well biotinylated di muNKG2D ECD Fc avi (SEQ ID NO: 98) at a concentration of 1 μg/ml and incubated at room temperature (RT) for 1 hour. The assay was performed as described above for human NKG2D.

Assay [1] concerns the target T2, human NKG2D expressed on cells (human, UniProt P26718 1-216).
T2 construct: the cell type is named under assay; also called NKG2D on NK92 cells; HEK293T human NKG2D
T2 chain: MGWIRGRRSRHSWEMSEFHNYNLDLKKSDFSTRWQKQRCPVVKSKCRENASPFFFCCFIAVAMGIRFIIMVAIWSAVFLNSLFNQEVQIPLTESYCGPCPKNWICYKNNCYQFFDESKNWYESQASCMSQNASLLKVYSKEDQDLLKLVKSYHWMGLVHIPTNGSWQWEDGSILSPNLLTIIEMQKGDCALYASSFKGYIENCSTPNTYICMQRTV
The assay can be described thus: flow cytometry; NK92 cells.

Another assay concerns the target T3, his avi huNKG2D ECD (human, biotinylated at the avi-tag (in the ELISA)).
T3 construct: Human NKG2D ECD with N-terminal H6-avi tags, forms non-covalent dimers; also called recombinant human NKG2D
T3 chain: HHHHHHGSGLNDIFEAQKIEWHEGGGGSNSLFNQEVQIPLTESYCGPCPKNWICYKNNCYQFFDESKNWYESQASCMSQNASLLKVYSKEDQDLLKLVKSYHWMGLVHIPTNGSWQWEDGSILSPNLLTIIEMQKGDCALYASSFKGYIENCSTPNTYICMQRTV
The experiment in a line: SPR Biacore T200; antigen captured via anti-His, bispecific analyte. The method, then: (§1) On a CM5 chip, an anti-penta-His capture antibody (Qiagen Penta-His Antibody, BSA-free; #34660) was immobilized by standard amine coupling on flow cells 2 and 3 at approximately 12′000 RU. […] Regeneration at the level of the anti-H6 tag capture antibody was achieved by 2 pulses of 10 mM glycine/HCl pH 2.0 for 60 s. Data were double-referenced against the unimmobilized flow cell 1 and a zero concentration of the analyte. The sensorgrams of the analytes were fitted to a simple 1:1 Langmuir interaction model.

The target in the next assay is T4, hu N(A2B2)A-avi-His (human).
T4 construct: Construct containing the A2 domain of human CEA, with avi and His tags; also called human CEA (A2 domain)
T4 chain: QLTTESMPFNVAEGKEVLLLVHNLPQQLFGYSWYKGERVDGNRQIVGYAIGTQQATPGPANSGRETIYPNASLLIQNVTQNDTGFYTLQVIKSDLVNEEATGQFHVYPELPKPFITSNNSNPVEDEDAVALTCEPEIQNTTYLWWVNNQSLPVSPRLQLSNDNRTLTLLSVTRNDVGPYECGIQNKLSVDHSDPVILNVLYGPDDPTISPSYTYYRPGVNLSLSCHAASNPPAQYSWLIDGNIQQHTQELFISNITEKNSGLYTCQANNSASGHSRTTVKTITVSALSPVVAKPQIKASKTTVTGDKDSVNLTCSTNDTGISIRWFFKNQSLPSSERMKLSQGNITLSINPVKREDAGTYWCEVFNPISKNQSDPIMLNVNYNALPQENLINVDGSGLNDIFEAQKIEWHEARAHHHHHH
Described as above. On the procedure: as §1

T1 sequence (chain, as listed by the source limits assumed): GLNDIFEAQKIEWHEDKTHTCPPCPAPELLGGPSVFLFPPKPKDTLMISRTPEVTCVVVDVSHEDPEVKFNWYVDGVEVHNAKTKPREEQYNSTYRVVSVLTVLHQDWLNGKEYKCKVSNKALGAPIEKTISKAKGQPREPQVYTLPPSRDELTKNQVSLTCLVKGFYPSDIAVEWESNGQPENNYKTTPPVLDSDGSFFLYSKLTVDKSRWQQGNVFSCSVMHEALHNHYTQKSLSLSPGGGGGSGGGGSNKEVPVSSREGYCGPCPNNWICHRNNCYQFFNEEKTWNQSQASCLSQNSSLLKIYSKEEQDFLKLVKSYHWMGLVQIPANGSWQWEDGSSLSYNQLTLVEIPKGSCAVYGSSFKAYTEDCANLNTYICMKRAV

B1: anti-NKG2D antibody clone 014 (antibody, V domains shown)
VH: EVQLLESGGGLVQPGGSLRLSCAASGFTFSSYAMSWVRQAPGKGLEWVSRISDGGGTIYYTDSVKGRFTIARDNSKNTLYLEMKSLRAEDTAVYYCAKHRLYDSIGAYAMDVWGQGTTVAVSS
VL: DIQMTQSPSSLSASVGDRVTITCRASQSISSYLNWYQQKPGKAPKLLIYDASNLETGVPSRFSGSGSGTDFTLTISSLQPEDFATYYCQQANSFPLTFGPGTKVDIK
notes: From transgenic rabbits
For B1, in the assay with di muNKG2D ECD Fc avi, the OD max worked out at 0.1 OD.

B2: NKG2D×CEA bispecific antibody in M format, P1AE4972 (395 C50S, non-humanized) / huA5B7 (bispecific antibody, V domains shown)
VH 1: QEQLEQSGGGLVTPGGSLKLCCTASGFDFNTFWMTWVRQAPGKGLEWIGSIHGGSGSRDYASWVNGRFTLSRDIDQSTACLQVNSLTAADTAMYYCARPGYRSWSKTFDLWGQGTMVTVSS
VL 1: DIQMTQSPSSLSASVGDRVTITCRASQDISGALNWYQQKPGKAPNLLIYAASSLQSGVPSRFSGSGSGTDYTLTISSLQPEDFATYYCQQANSFPLTFGGGTKVEIK
VH 2: EVQLLESGGGLVQPGGSLRLSCAASGFTFTDYYMNWVRQAPGKGLEWLGFIGNKANAYTTEYSASVKGRFTISRDKSKNTLYLQMNSLRAEDTATYYCTRDRGLRFYFDYWGQGTTVTVSS
VL 2: EIVLTQSPATLSLSPGERATLSCRASSSVTYIHWYQQKPGQAPRSWIYATSNLASGIPARFSGSGSGTDFTLTISSLEPEDFAVYYCQHWSSKPPTFGQGTKLEIK
notes: also called non-humanized comparator
Molecule B2 had a concentration for a half-maximal effect (EC50) in assay [1] of 0.00847 µM. Further, the dissociation constant Kd with his avi huNKG2D ECD was determined as 0.0105 µM; with hu N(A2B2)A-avi-His, 0.00334 µM.

B3: NKG2D×CEA bispecific antibody in M format, P1AE4977 / huA5B7 (bispecific antibody, V domains shown)
VH 1: EVQLLESGGGLVQPGGSLRLSCAASGFDFNTFWMTWVRQAPGKGLEWVGSIHGGSGSRDYADSVKGRFTISRDIDQSTAYLQMNSLRAEDTAVYYCARPGYRSWSKTFDLWGQGTTVTVSS
VL 1: DIQMTQSPSSLSASVGDRVTITCRASQDISGALNWYQQKPGKAPNLLIYAASSLQSGVPSRFSGSGSGTDYTLTISSLQPEDFATYYCQQANSFPLTFGGGTKVEIK
VH 2: EVQLLESGGGLVQPGGSLRLSCAASGFTFTDYYMNWVRQAPGKGLEWLGFIGNKANAYTTEYSASVKGRFTISRDKSKNTLYLQMNSLRAEDTATYYCTRDRGLRFYFDYWGQGTTVTVSS
VL 2: EIVLTQSPATLSLSPGERATLSCRASSSVTYIHWYQQKPGQAPRSWIYATSNLASGIPARFSGSGSGTDFTLTISSLEPEDFAVYYCQHWSSKPPTFGQGTKLEIK
In assay [1], B3 came in with an EC50 of 0.0196 µM. Further, the figures for the dissociation constant Kd with his avi huNKG2D ECD and with hu N(A2B2)A-avi-His were 0.0229 µM and 0.00377 µM, respectively.

B4: NKG2D×CEA bispecific antibody in M format, P1AE4981 / huA5B7 (bispecific antibody, V domains shown)
VH 1: QEQLQESGPGLVKPSETLSLTCTVSGFDFNTFWMTWIRQPPGKGLEWIGSIHGGSGSRDYNPSLKSRVTISVDIDQNQFSLKLSSVTAADTAVYYCARPGYRSWSKTFDLWGQGTTVTVSS
VL 1: DIQMTQSPSSLSASVGDRVTITCRASQDISGALNWYQQKPGKAPNLLIYAASSLQSGVPSRFSGSGSGTDYTLTISSLQPEDFATYYCQQANSFPLTFGGGTKVEIK
VH 2: EVQLLESGGGLVQPGGSLRLSCAASGFTFTDYYMNWVRQAPGKGLEWLGFIGNKANAYTTEYSASVKGRFTISRDKSKNTLYLQMNSLRAEDTATYYCTRDRGLRFYFDYWGQGTTVTVSS
VL 2: EIVLTQSPATLSLSPGERATLSCRASSSVTYIHWYQQKPGQAPRSWIYATSNLASGIPARFSGSGSGTDFTLTISSLEPEDFAVYYCQHWSSKPPTFGQGTKLEIK
With B4, the EC50 in assay [1] worked out at 0.0683 µM. The Kd with his avi huNKG2D ECD stood at 0.0463 µM; with hu N(A2B2)A-avi-His, 0.00323 µM.

B5: NKG2D×CEA bispecific antibody in M format, P1AE4978 / huA5B7 (bispecific antibody, V domains shown)
VH 1: EVQLVESGGGLVQPGGSLRLSCAASGFDFNTFWMTWVRQAPGKGLEWVGSIHGGSGSRDYADSVKGRFTISADIDQSTAYLQMNSLRAEDTAVYYCARPGYRSWSKTFDLWGQGTTVTVSS
VL 1: DIQMTQSPSSLSASVGDRVTITCRASQDISGALNWYQQKPGKAPNLLIYAASSLQSGVPSRFSGSGSGTDYTLTISSLQPEDFATYYCQQANSFPLTFGGGTKVEIK
VH 2: EVQLLESGGGLVQPGGSLRLSCAASGFTFTDYYMNWVRQAPGKGLEWLGFIGNKANAYTTEYSASVKGRFTISRDKSKNTLYLQMNSLRAEDTATYYCTRDRGLRFYFDYWGQGTTVTVSS
VL 2: EIVLTQSPATLSLSPGERATLSCRASSSVTYIHWYQQKPGQAPRSWIYATSNLASGIPARFSGSGSGTDFTLTISSLEPEDFAVYYCQHWSSKPPTFGQGTKLEIK
B5 yielded an EC50 in assay [1] of 0.0355 µM. For the same molecule, the Kd with his avi huNKG2D ECD stood at 0.0374 µM; in the assay with hu N(A2B2)A-avi-His, 0.00384 µM.

B6: NKG2D×CEA bispecific antibody in M format, P1AE4975 / huA5B7 (bispecific antibody, V domains shown)
VH 1: EVQLLESGGGLVQPGGSLRLSCAASGFDFNTFWMTWVRQAPGKGLEWVGSIHGGSGSRDYADSVKGRFTISRDNSKNTAYLQMNSLRAEDTAVYYCARPGYRSWSKTFDLWGQGTTVTVSS
VL 1: DIQMTQSPSSLSASVGDRVTITCRASQDISGALNWYQQKPGKAPNLLIYAASSLQSGVPSRFSGSGSGTDYTLTISSLQPEDFATYYCQQANSFPLTFGGGTKVEIK
VH 2: EVQLLESGGGLVQPGGSLRLSCAASGFTFTDYYMNWVRQAPGKGLEWLGFIGNKANAYTTEYSASVKGRFTISRDKSKNTLYLQMNSLRAEDTATYYCTRDRGLRFYFDYWGQGTTVTVSS
VL 2: EIVLTQSPATLSLSPGERATLSCRASSSVTYIHWYQQKPGQAPRSWIYATSNLASGIPARFSGSGSGTDFTLTISSLEPEDFAVYYCQHWSSKPPTFGQGTKLEIK
As to B6, the EC50 in assay [1] is 0.0149 µM. Further, the figures for the Kd with his avi huNKG2D ECD and with hu N(A2B2)A-avi-His were 0.0186 µM and 0.00366 µM, respectively.

B7: NKG2D×CEA bispecific antibody in M format, P1AE4973 / huA5B7 (bispecific antibody, V domains shown)
VH 1: EVQLLESGGGLVQPGGSLRLSCAASGFDFNTFWMTWVRQAPGKGLEWVGSIHGGSGSRDYADSVKGRFTISRDNSKNTLYLQMNSLRAEDTAVYYCARPGYRSWSKTFDLWGQGTTVTVSS
VL 1: DIQMTQSPSSLSASVGDRVTITCRASQDISGALNWYQQKPGKAPNLLIYAASSLQSGVPSRFSGSGSGTDYTLTISSLQPEDFATYYCQQANSFPLTFGGGTKVEIK
VH 2: EVQLLESGGGLVQPGGSLRLSCAASGFTFTDYYMNWVRQAPGKGLEWLGFIGNKANAYTTEYSASVKGRFTISRDKSKNTLYLQMNSLRAEDTATYYCTRDRGLRFYFDYWGQGTTVTVSS
VL 2: EIVLTQSPATLSLSPGERATLSCRASSSVTYIHWYQQKPGQAPRSWIYATSNLASGIPARFSGSGSGTDFTLTISSLEPEDFAVYYCQHWSSKPPTFGQGTKLEIK
Molecule B7 showed an EC50 in assay [1] of 0.0176 µM. The Kd amounted to 0.0145 µM in the assay with his avi huNKG2D ECD and 0.00255 µM with hu N(A2B2)A-avi-His.

B8: NKG2D×CEA bispecific antibody in M format, P1AE4979 / huA5B7 (bispecific antibody, V domains shown)
VH 1: QEQLLESGGGLVQPGGSLRLSCAASGFDFNTFWMTWVRQAPGKGLEWVGSIHGGSGSRDYADSVKGRFTISRDIDQSTAYLQMNSLRAEDTAVYYCARPGYRSWSKTFDLWGQGTTVTVSS
VL 1: DIQMTQSPSSLSASVGDRVTITCRASQDISGALNWYQQKPGKAPNLLIYAASSLQSGVPSRFSGSGSGTDYTLTISSLQPEDFATYYCQQANSFPLTFGGGTKVEIK
VH 2: EVQLLESGGGLVQPGGSLRLSCAASGFTFTDYYMNWVRQAPGKGLEWLGFIGNKANAYTTEYSASVKGRFTISRDKSKNTLYLQMNSLRAEDTATYYCTRDRGLRFYFDYWGQGTTVTVSS
VL 2: EIVLTQSPATLSLSPGERATLSCRASSSVTYIHWYQQKPGQAPRSWIYATSNLASGIPARFSGSGSGTDFTLTISSLEPEDFAVYYCQHWSSKPPTFGQGTKLEIK
As to B8, in assay [1], the EC50 came out at 0.0131 µM. Further, the dissociation constant (Kd) with his avi huNKG2D ECD was 0.0172 µM; in the assay with hu N(A2B2)A-avi-His, 0.00513 µM.
